Results from publication doi:10.1101/2025.04.18.649563.
“And” between values parts separate entries of the source, which are not always exact repeats. Identical values can stand only once.

Target: actin purified from muscle acetone powder (ground beef); polymerised to F-actin (Bos taurus (ground beef)) (UniProt P68138)
Test: co-sedimentation

Lfat1 ABD [change], recombinant (from UniProt Q5ZVQ3 138-355) (domain or fragment)
Kd: 19.1 µM and 16.3 µM and 63.7 µM
